Each block holds one molecule with its values, some of them ahead of it.
Legend:
TadA8e (E. coli) = TadA8e (E. coli) (UniProt P68398); experiment: SEC; Superdex 200 Increase 10/300 GL, 20 mM HEPES pH7.5, 500 mM KCl; elution position between 44.0 and 29.0 kDa compared with the monomer mass of about 18.7 kDa
TadA7.10 [1] = target: T1, TadA7.10 (Escherichia coli? (laboratory-evolved …, UniProt P68398 1-167, W23R;H36L;P48A;R51L;L84F;A106V;D108N;H123Y;S146C;D147Y;R152P;E155V;I156F;K157N)); experiment: as above
TadA7.10 [2] = target: T1, TadA7.10; experiment: MST; 5 mM Mg2+; MST: 20 mM HEPES pH 7.5, 200 mM KCl, 5 mM MgCl2, 1 mM DTT, 0.05% Tween-20; 100 nM DNA; 120 min at room temperature; details: protein: recombinant; tags: N-terminal non-cleavable His6; chain copies: 2; label: 5' 6-FAM; single-stranded
TadA7.10-3mut = TadA7.10-3mut (Escherichia coli? (laboratory-evolved …, UniProt P68398 1-167, W23R;H36L;P48A;R51L;L84F;A106V;D108N;T111R;D119N;H123Y;S146C;D147Y;R152P;E155V;I …)); experiment: as above; details: protein: recombinant; tags: N-terminal non-cleavable His6; chain copies: 2; label: 5' 6-FAM; single-stranded

stoichiometry N (TadA8e (E. coli)): 2
Molecule: TadA8e (from UniProt P68398 1-167) (enzyme)

stoichiometry N (TadA7.10 [1]): 2
Molecule: TadA7.10 (from UniProt P68398 1-167) (enzyme)

B1: 19-nt ssDNA (NTS of 6VPC with five bases mutated at either end) (ssDNA)
DNA: TTCTCTTCCACTTTCTTTT
Kd (TadA7.10 [2]): 106 nM
Kd (TadA7.10-3mut): 38.5 nM

Source: PMC11335294, “Directed-evolution mutations enhance DNA-binding affinity and protein stability of the adenine base editor ABE8e”
